Molecular target: T1, mANGPTL4-His [R26-S410 of mANGPTL4 (SEQ ID NO: 478) fused with an AS linker to a C-terminal 6-histidine tag] (mouse, UniProt Q9Z1P8 26-410)
T1 construct: also called mANGPTL4(26-410)-His
T1 sequence: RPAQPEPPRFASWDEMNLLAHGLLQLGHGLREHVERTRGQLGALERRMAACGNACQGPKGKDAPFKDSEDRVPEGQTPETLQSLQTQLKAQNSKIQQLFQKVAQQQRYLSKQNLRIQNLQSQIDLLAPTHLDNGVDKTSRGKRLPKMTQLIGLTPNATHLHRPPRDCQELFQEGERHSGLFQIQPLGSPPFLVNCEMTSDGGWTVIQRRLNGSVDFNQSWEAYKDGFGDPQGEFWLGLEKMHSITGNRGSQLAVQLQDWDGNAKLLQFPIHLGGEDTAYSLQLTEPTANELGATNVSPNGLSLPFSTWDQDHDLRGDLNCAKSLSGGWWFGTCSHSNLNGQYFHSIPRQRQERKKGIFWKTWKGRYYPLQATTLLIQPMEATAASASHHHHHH
Assay: SPR (Biacore), antigen amine coupled
Experimental: Possible cross-reactivity of the anti-hANGPTL4 antibodies to related proteins, i.e., hANGPTL3, human angiopoietin-like protein 5 (hANGPTL5) and mouse ANGPTL4 (mANGPTL4), was tested for the selected antibodies, i.e., H1H268P and H1H284P, using the BIACORE™ system. Briefly, anti-hANGPTL4 antibodies as well as negative controls, i.e., two monoclonal antibodies (Control a and Control b) that are non-binders to any ANGPTL proteins, were injected at 3.125 μg/mL-50 μg/mL over amine coupled chip surfaces of hANGPTL3-His (R&D Systems, cat #3829-AN) at 5228 RU, hANGPTL4-His (R&D Systems, cat #4487-AN) at 6247 RU, hANGPTL5-His (Abnova Corp., cat #H00253935-P01) at 5265 RU, and mANGPTL4-His [R26-S410 of mANGPTL4 (SEQ ID NO: 478) fused with an AS linker to a C-terminal 6-histidine tag] at 5233 RU, respectively. A polyclonal antibody specific for hANGPTL3 (R&D System, cat #BAF3485) was also tested.

B1: H1H284P (antibody, V domains shown)
VH: QVQLVESGGGVVQPGRSLRLSCAASGFTFSSYGMHWVRQAPGKGLEWMAVISFDGGNKNNADSVKGRFTISRDNSKNTLYLQMNSLRAEDTAVYYCAKEGDRSGHPYFYYYGLDVWGQGTTVTVS
VL: DIQLTQSPSFLSASVGDRVTITCWASQGISSYLAWYQQKPGKAPKLLIYAASTLQSGVPSRFSGSGSETEFTLTISSLQPEDFATYYCQQLHSYPLTFGGGTKVEIK
notes: also called entire H1H284 mAb; Full mAb
  binding result: no binding (tested: 3.125 µg/mL-50 µg/mL)
